Assay results taken from patent publication US6991794B1, “Progenitor cell preservation factors and methods for and products of their use” (ImClone Systems Incorporated, priority 1997, dated 2006).

System: untransfected 3T3 cells
Assay: untransfected parent 3T3 control cells (XTT)
Assay type: cell-based
Settings: Example 5 serum-free conditions
Protocol: Specifically, 3T3 cells cultured in tissue culture plates (Becton Dickinson Labware, Lincoln Park, N.J.) were removed from the plates by washing cells twice in Hank's buffered saline solution (HBSS; Gibco Laboratories, Grand Island, N.Y.). Non-enzymatic cell dissociation buffer (Gibco) was added for 15 minutes at room temperature. The resulting cells were washed in medium. FLT3 3T3 cells were cultured at a final concentration of 3,000 cells per well in a volume of 100 μL of serum-defined medium containing […] rhIL1-α, 10% AIMV (Gibco, Grand Island, N.Y.) and 90% Dulbecco's modification of Eagle's medium (DMEM; Gibco) in 96 well plates. […] Proliferation and cell survival was quantitated by addition of XTT (2, 3-bis[Methoxy-4-nitro-5sulfophenyl]-2H-tetrazolium-5 carboxanilide inner salt) (Diagnostic Chemicals Ltd, Charlottetown, Prince Edward Island, Canada), which is a […] cleaved by actively respiring cells (Roehm et al., J. Immunol. Methods 142: 257-265, 1991). Proliferation and cell survival was quantitated spectrophotometrically using a Vmax kinetic plate reader (Molecular Devices Corp., Mountain View, Calif.), and recorded as either relative activity (units/mL) or as specific activity (units/mg). One unit of biological activity was defined as the reciprocal dilution at which half-maximal stimulation of cells is detected. […]

B1: Pv-FRIL: FRIL family mannose-binding lectin from Phaseolus vulgaris (red kidney bean), SEQ ID NO: 6 (protein)
chain: AQSLSFNFTKFDLDQKDLIFQGDATSTNNVLQLTKLDSGGNPVGASVGRVLFSAPFHLWENSMAVSSFETNLTIQISTPHPYYAADGFAFFLAPHDTVIPPNSWGKFLGLYSNVFRNSPTSENQSFGDVNTDSRVVAVEFDTFPNANIDPNYRHIGIDVNSIKSKETARWEWQNGKTATARISYNSASKKSTVTTFYPGMEVVALSHDVDLHAELPEWVRVGLSASTGEEKQKNTIISWSFTSSLKNNEVKEPKEDMYIANVVRSYTWINDVLSYISNKMYDALNNNHKYVRCSTCMLFMKKK
For B1, the “response of parent untransfected 3T3 cells” value was “did not”.
